These are literature values, as cited in PMC6722209.

Data set [1] concerns the target IgG1 Fc Fc (Homo sapiens) [IgG part: P01857]. In words: fluorescence anisotropy. Background: Polarisation of emitted light reports the rotation of a fluorescent probe.
Data set [2] has the same target. In words: ITC and SPR.

TRIM21, sequence (P19474 whole entry): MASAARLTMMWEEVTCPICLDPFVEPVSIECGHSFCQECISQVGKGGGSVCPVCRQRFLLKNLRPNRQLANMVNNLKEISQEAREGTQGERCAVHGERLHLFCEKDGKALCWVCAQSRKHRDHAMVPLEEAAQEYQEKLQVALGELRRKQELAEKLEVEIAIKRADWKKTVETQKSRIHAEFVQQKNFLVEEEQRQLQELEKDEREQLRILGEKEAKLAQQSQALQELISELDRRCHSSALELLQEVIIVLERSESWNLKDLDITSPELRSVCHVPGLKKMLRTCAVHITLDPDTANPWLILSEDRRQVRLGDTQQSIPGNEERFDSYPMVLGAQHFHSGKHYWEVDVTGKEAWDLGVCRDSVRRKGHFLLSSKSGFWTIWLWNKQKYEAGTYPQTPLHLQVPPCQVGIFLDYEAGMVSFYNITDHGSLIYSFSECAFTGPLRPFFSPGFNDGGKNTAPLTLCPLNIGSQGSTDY
TRIM21 PRYSPRY, sequence (P19474 268-465): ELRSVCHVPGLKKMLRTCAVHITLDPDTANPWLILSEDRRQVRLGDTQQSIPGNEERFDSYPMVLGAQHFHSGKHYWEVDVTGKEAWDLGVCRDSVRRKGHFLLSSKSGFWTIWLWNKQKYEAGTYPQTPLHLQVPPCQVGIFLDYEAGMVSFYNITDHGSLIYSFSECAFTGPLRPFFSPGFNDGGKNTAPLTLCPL

As to TRIM21 (from UniProt P19474), the dissociation constant Kd in data set [1] was 0.6 nM.

TRIM21 PRYSPRY (from UniProt P19474): the Kd in data set [2] was 175 nM.

In general, Kd refers to a measure of binding affinity in units of concentration.
